This note sets out measurements from patent publication US20030206886A1 (UNIVERSITY OF MEDICINE AND DENTISTRY OF NEW JERSEY, published 2003).

For assay [1], the target named is T1, murine IL-10 receptor IgG immunoadhesin (murine, UniProt Q61727 17-241).
T1 construct: Used as specificity control; also called murine IL-10 R immunoadhesin; murine IL-10 receptor immunoadhesin; not shown: IgG backbone
T1 sequence (looked up): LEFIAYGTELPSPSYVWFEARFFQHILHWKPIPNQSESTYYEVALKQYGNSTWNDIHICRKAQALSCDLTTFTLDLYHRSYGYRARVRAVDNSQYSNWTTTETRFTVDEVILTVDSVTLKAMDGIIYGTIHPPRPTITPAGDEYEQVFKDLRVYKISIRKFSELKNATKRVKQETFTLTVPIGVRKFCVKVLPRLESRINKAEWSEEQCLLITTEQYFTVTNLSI
Nature of the assay: bead depletion assay, FIG. 3 top.

Assay [2] concerns the target T2, human IL-10 receptor immunoadhesin (isotype not stated, control of FIG. 3 bottom) (human, UniProt Q13651 22-235).
T2 construct: extracellular domain; not shown: human IgG1 or IgA1 hinge-CH2-CH3
T2 sequence (looked up): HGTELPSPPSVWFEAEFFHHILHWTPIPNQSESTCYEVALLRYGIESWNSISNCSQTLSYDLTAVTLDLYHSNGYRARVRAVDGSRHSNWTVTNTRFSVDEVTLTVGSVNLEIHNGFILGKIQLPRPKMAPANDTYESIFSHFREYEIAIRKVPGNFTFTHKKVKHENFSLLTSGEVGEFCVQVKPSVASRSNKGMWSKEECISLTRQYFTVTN
Nature of the assay: ELISA inhibition, FIG. 3 bottom. (In general: ELISA stands for enzyme-linked immunosorbent assay.)

Assay [3] has as its target T3, human IL-10 receptor IgG immunoadhesin (human, UniProt Q13651 22-235).
T3 construct: extracellular domain; Tested as concentrated supernatant of cells infected with recombinant vaccinia; also called human IL-10R adhesin; human IL-10 R adhesin; not shown: human IgG1 heavy chain hinge, CH2 and CH3 domains, amplified from ARH-77 cDNA; joined through a SalI site; residue limit
T3 sequence (looked up): T2 sequence (looked up)
The assay can be described thus: bead depletion assay, unbound hIL-10 by ELISA, FIG. 1 top.

The target in assay [4] is T1, murine IL-10 receptor IgG immunoadhesin. Nature of the assay: bead depletion assay (immunoadhesin on beads, unbound hIL-10 in filtrate by ELISA), FIG. 1 top.
For assay [5], the target named is T4, murine IL-4 receptor IgG immunoadhesin (murine, UniProt P16382 26-233).
T4 construct: Tested as concentrated supernatant of vaccinia-infected cells; also called murine IL-4 receptor immunoadhesin; mIL-4R IgG immunoadhesin; not shown: IgG backbone
T4 sequence (looked up): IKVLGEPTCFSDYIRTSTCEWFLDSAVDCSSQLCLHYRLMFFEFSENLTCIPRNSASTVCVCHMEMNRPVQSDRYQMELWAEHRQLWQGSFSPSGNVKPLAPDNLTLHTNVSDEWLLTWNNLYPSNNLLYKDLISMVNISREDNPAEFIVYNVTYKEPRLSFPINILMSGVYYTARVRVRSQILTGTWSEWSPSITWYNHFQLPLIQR
The description is as above.

B1: murine IL-4 (ligand, UniProt P07750 21-140, looked up)
chain: HIHGCDKNHLREIIGILNEVTGEGTPCTEMDVPNVLTATKNTTESELVCRASKVLRIFYLKHGKTPCLKKNSSVLMELQRLFRAFRCLDSSISCTMNESKSTSLKDFLESLKSIMQMDYS
notes: also called mIL-4
As to B1, the values for the binding result in assay [1] and in assay [2] were “no binding (tested: 250 µl of 200 pg/100 µl of mIL-4)” and “no binding”, respectively.

B2: human IL-10 (ligand, UniProt P22301 19-178, looked up)
chain: SPGQGTQSENSCTHFPGNLPNMLRDLRDAFSRVKTFFQMKDQLDNLLLKESLLEDFKGYLGCQALSEMIQFYLEEVMPQAENQDPDIKAHVNSLGENLKTLRLRLRRCHRFLPCENKSKAVEQVKNAFNKLQEKGIYKAMSEFDIFINYIEAYMTMKIRN
notes: also called hIL-10
Consider B2, for which the binding result is recorded as “binds” in assay [3], “no binding (tested: 250 µl of 200 pg/100 µl of hIL-10)” in assay [4] and “no binding (tested: 250 µl of 200 pg/100 µl of hIL-10)” in assay [5].
